Test in all cases: cell-based or functional assay
For one test, the target named is GLP-1 receptor (GLP-1R).
In another test the target is GCG receptor (GCGR).
Another test concerns the target T1, GIP receptor (GIPR).
T1 sequence (P48546 whole entry, species assumed, looked up): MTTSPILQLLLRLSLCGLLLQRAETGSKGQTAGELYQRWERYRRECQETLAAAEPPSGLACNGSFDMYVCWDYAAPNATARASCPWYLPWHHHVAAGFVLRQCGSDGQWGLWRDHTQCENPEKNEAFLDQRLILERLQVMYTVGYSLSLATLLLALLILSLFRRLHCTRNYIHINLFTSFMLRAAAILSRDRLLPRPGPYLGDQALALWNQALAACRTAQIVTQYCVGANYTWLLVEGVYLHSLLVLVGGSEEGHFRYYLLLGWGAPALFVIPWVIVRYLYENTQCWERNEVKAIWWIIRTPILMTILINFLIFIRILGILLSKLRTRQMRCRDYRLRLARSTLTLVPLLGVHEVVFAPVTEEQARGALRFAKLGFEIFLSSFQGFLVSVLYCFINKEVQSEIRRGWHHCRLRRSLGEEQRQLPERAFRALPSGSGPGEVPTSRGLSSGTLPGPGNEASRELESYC

“Human GLP-1 (7-37) (from UniProt P01275 21-180) (ligand)”: the GLP-1 EC50 (nM), cAMP assay on HEK293 cells with GLP-1R with GLP-1 receptor (GLP-1R) was 0.001 nM.
LY3437943 (peptide) yielded a GCG EC50 (nM), cAMP assay on HEK293 cells with GCGR with GCG receptor (GCGR) of 0.031 nM. Besides, in the test with GIP receptor (GIPR), the GIP-1 EC50 (nM), cAMP assay on CHO cells with GIPR is 0.001 nM. For the same substance, the GLP-1 EC50 (nM), cAMP assay on HEK293 cells with GLP-1R in the test with GLP-1 receptor (GLP-1R) came to 0.014 nM.
In the test with GCG receptor (GCGR), “Human Glucagon (from UniProt P01275 53-81) (ligand)” showed a GCG EC50 (nM), cAMP assay on HEK293 cells with GCGR of 0.001 nM.

The values above are taken from patent publication US20260234211A1, “POLYPEPTIDE HAVING MODIFIED STRUCTURE AND USE THEREOF” (Guangdong Raynovent Biotech Co., Ltd., priority 2023, published 2026).
